Source: article PMC4678821

Biological target: casposon-encoded Aciduliprofundum boonei T469 Cas1 (Aciduliprofundum boonei T469)
Assay: SEC; Superdex 200 16/60, step of the purification after TEV cleavage; data not shown

stoichiometry N: 2
Substance: casposon-encoded Aciduliprofundum boonei T469 Cas1 (enzyme)
